A short description of series [1]: Hydrophilicity of ADCs (HIC, TSKgel Butyl-NPR). Type of series: physicochemical. To be noted: for Hydrophobicity value: (RT sample − RT hydrophilic control)/(RT hydrophobic control − RT hydrophilic control), Tagitanlimab = 0, Sacituzumab = 1; for Retention time: HIC, TSKgel Butyl-NPR column, 30°C, smaller = more hydrophilic. The method, then: The column temperature was 30° C., the detection wavelength was 280 nm, and the flow rate was: 0.5 mL/min, mobile phase A: 1.5 mol/L (NH4)2SO4; mobile phase B: 25 mmol/L Na2HPO4, pH=7.0, 25% isopropanol alcohol (IPA). For analysis, a test sample of ADC was diluted to 1 mg/mL solution using the diluent 0.75 mol/L (NH4)2SO4 to provide a test solution. The hydrophilic control antibody was Tagitanlimab and the hydrophobic control antibody was Sacituzumab. Control antibodies were produced by Sichuan Kelun-Biotech Biopharmaceutical Co., Ltd. using the diluent to make a 1 mg/mL test solution as the system suitability solution. […] After testing, the hydrophobicity value of the test sample was calculated based on the control sample. The calculation formula was: (Retention time of test sample−Retention time of hydrophilic control)/(Retention time of hydrophobic control−Retention time of hydrophilic control).

A short description of series [2]: Hydrophilicity of bispecific antibodies (HIC, TSKgel Butyl-NPR). To be noted: for Hydrophobicity value: (RT sample − RT hydrophilic control)/(RT hydrophobic control − RT hydrophilic control), Tagitanlimab = 0, Sacituzumab = 1; for Retention time: HIC, TSKgel Butyl-NPR column, 30°C, smaller = more hydrophilic. In kind it is physicochemical. The method, then:
Column temperature: 30° C., detection wavelength: 280 nm, flow rate: 0.5 ml/min, mobile phase A: 1.5 mol/L (NH4)2SO4, mobile phase B: 25 mmol/L Na2HPO4, pH=7.0, 25% IPA. A suitable amount of the test sample was diluted with diluent (0.75 mol/L (NH4)2SO4) to make a solution of 1.0 mg/ml as the test sample solution. The control antibodies were Tagitanlimab as a hydrophilic control (disclosed in WO2017148424) and Sacituzumab as a hydrophobic control (disclosed in WO2019114666). (Both antibodies are produced by Kelun-Biotech.) Each of the control antibodies were diluted with the diluent to make a solution of 1.0 mg/ml as the system suitability solution. About […] of sample was injected and analyzed in gradient elution: 0-3 min, maintaining mobile phase A of 95% and mobile phase B of 5%; 3-40 min, mobile phase B from 5% to 100%; 40-45 min, maintaining mobile phase A of 95% and mobile phase B of 5%. The hydrophobicity value of the test sample was calculated according to the control sample with the formula: (retention time of the test sample−retention time of the hydrophilic control)/(retention time of the hydrophobic control−retention time of the hydrophilic control), and the smaller the retention time and hydrophobicity value, the better the hydrophilicity of the antibody.

Consider Tagitanlimab, for which, in series [1], the Hydrophobicity value was 0.00 and the Retention time amounted to 11.01 min. Further, in series [2], the Hydrophobicity value worked out at 0.00 and the Retention time is listed as 11.009 min.

Sacituzumab: the Hydrophobicity value in series [1] and in series [2] was 1.00 throughout. Besides, the Retention time worked out at 19.00 min in series [1] and 19.001 min in series [2].
